The text below walks through data of paper PMC9271601 (Structure (London, England : 1993), 2022).

Assay [1] has as its target H3 (A/Texas/50/2012) HA probe (Influenza A virus A/Texas/50/2012 (H3N2), UniProt R4L1D1, strain, biotin (biotin protein ligase, AviTag)). The assay is described as follows: flow cytometry on cells.
Assay [2] addresses H3N2 A/Victoria/361/2011 hemagglutinin trimer, wild type (Influenza A virus A/Victoria/361/2011 …, UniProt A0A097PF39, strain). The assay is described as follows: BLI. (In general: BLI is a label-free optical method that tracks binding on a fibre tip over time.)

B1: 1D12 B cell receptor on the donor's B cell (antibody, V domains shown)
VH: QLVQSGAEVKKPGASVKVSCKASGYTFTGYYLHWVRQAPGQGLEWMGRINPDTGGTNYAQKFQGRVSMTRDMSISTHYMELSRLTSDDTAVYYCATKRGAVTAMVYYYFYGMDVWGQGTTVTVSS
VL: DIVMTQSPLSLSVTPGEPASISCRSSHSLLHLNGYNYLDWYLQKPGQSPQLLIYLGSNRASGVPDRFSGSGSGTDFTLKISRVEAEDVGIYYCMQALRTPPGLTFGGGTKVDIK
On to B1, for which the binding result in assay [1] is “binds”.

B2: 315–19-1D12 Fab (Fab, V domains shown)
VH: B1 VH
VL: B1 VL
Regarding B2, in assay [2], the binding result is on record as “binds”.
